Results from patent US20230190883A1, “STABLE PEPTIDES HAVING RENALASE AGONIST ACTIVITY” (Bessor Pharma, LLC, priority 2020, published 2023).
Marks after values point to notes of the source that are not given here.

Test system: carrageenan-induced Paw edema
Test: carrageenan-induced paw edema (CPE) model in mice
Assay type: in vivo, CD-1 mice
Conditions: 3 mpk
Excerpt: This test is a rapid in vivo model for evaluation of anti-inflammatory efficacy of test articles. The CPE model in mice quantitativdy assesses inhibition of edema enduced by subplantarinjection of carrageenan. […] Carrageenan-induced inflammation invoves extravasation of polymorphonuclear leukocytes from circulation to the site of inflammation. The subsequent release of myeloperoxidase and other cytokines within the interstitial tissues results in plasma exudation into the site of inflammation. The increased paw volume is measured by water displacement. Anti-inflammatory drugs reduce the paw edema.
• 1. Receive (SOP 1910, SOP 1920) and quarantine (SOP 560) 125 CD-1 mice (Charles River Laboratories, male, 5-6 weeks old). • 2. Animals are ear tagged (SOP 810), weighed, and sorted into 9 groups with 10 animals/group and 5 groups of 7 animals/group based upon average body weight. • 3. Prepare 3% carrageenan solution: • 1) Preparation at least 2 weeks in advance of use. • 2) Weigh out 600 mg A-carrageenan into a glass beaker. • 3) Add 20 ml deionized water. • 4) Stir on mild heat until carrageenan fully dissolved. • 5) Cool solution to ambient temperature. • 6) Store at 4-8° C. • 4. Until the day of use the renalase peptides are stored at -20° C. as dry powder. • 5. DAY 0 • a. Prepare test material in sterile saline (vehicle). • b. On the day of dosing, renalase peptides are dissolved. • c. On day prior to administration check carrageenan solution for clarity (no visible evidence of contamination). • 1) Equilibrate carrageenan to ambient temperature. • d. Record mouse weights in laboratory notebook. • e. Measure and record paw initial paw volumes: • 1) Place beaker of water on balance and tare to zero. • 2) Place right hind limb in the beaker of water on the scale with the top of the hock centered in the meniscus of the water. Record read-out on the scale. • 3) The foot must be dried after each measurement as wet feet will change the readout. • 4) Re-tare the scale between measurements to account for decrease in water volume. • f. […]
The test was also conducted to compare the inhibition of inflammation by peptide 10 as compared to the corresponding peptide fragment without the alanine substitution at position 220 (peptide 81).

B1: Renalase: RNLS is a 37 kD secretory protein that is primarily made by kidney proximal renal tubules cells (protein, UniProt Q5VYX0 18-342, looked up)
Renalase: ALLRRQTSGPLYLAVWDKAEDSGGRMTTACSPHNPQCTADLGAQYITCTPHYAKKHQRFYDELLAYGVLRPLSSPIEGMVMKEGDCNFVAPQGISSIIKHYLKESGAEVYFRHRVTQINLRDDKWEVSKQTGSPEQFDLIVLTMPVPEILQLQGDITTLISECQRQQLEAVSYSSRYALGLFYEAGTKIDVPWAGQYITSNPCIRFVSIDNKKRNIESSEIGPSLVIHTTVPFGVTYLEHSIEDVQELVFQQLENILPGLPQPIATKCQKWRHSQVTNAAANCPGQMTLHHKPFLACGGDGFTQSNFDGCITSALCVLEALKNYI
With B1 the “percent change from control, paw edema, 2 hr after carrageenan” value (2 hr after carrageenan) was 60.1* percent, the “percent change from control, paw edema, 4 hr after carrageenan” value (4 hr after carrageenan) was 35.3* percent and the “percent change from control, paw edema, 6 hr after carrageenan” value (6 hr after carrageenan) was 4.5%. For the same molecule, the “percent change from control, paw edema, 10 hr after carrageenan” value (10 hr after carrageenan) was 23.7%.
